Measurements published in patent US20260166139A1 (AKESO BIOPHARMA, published 2026).

T1: CTLA4 antigen on the surface of 293F-CTLA4 host cells (UniProt P16410 36-223, limits assumed)
T1 construct: whole, on cells
T1 sequence (looked up): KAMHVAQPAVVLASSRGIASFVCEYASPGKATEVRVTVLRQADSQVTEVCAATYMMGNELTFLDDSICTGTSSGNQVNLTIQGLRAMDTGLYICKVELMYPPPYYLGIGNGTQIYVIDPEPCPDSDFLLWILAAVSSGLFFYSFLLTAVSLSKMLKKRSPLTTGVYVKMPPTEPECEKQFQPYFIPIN

T2: CTLA4 antigen (NCBI Gene ID: 1493) obtained by TEV protease cleavage of CTLA4-mFc (Homo sapiens (Human), UniProt P16410 37-161)
T2 construct: also called the antigen CTLA4
T2 sequence: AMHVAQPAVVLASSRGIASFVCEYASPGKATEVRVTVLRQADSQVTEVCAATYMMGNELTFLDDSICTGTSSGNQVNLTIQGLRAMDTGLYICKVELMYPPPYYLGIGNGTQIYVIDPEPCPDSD

T3: human CTLA4 (human, UniProt P16410 36-161, limits assumed)
T3 construct: also called human CTLA4 antigen; CTLA4 protein
T3 sequence (looked up): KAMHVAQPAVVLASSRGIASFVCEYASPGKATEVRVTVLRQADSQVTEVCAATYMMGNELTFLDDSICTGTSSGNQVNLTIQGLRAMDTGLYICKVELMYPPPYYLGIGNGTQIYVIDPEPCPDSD


Experiments:
CTLA4-mFc [1] = target: T4, CTLA4-mFc; test: competitive ELISA, competitor B7-1
T4 construct: also called CTLA4ECD-mFc fusion protein; CTLA4 antigen
Protocol: (§1) After incubation at 37° C. for 40 minutes, the enzyme conjugated secondary antibody was added. After incubation at 37° C. for 30 minutes, the absorbance at 450 nm was detected on an ELISA plate reader.
Target sequence in this assay (chain, as listed by the source limits assumed): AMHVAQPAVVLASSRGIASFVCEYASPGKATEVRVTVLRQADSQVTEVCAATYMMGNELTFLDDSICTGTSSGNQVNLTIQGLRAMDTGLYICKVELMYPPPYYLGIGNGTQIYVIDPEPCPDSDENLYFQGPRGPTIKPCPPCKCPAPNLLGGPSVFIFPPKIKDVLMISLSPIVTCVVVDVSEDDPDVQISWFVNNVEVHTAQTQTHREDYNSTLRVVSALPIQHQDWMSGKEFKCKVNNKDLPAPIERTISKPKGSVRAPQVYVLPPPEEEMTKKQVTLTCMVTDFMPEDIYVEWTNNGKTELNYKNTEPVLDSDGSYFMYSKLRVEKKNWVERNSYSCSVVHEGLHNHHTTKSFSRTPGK

CTLA4-mFc [2] = target: T4, CTLA4-mFc; test: competitive ELISA, competitor B7-2
Protocol: as §1
Target sequence in this assay (chain, as listed by the source limits assumed): as above

[3] = target: T1, CTLA4 antigen on the surface of …; test: flow cytometry, 293F-CTLA4 cells; antibody 0.1 nM
Protocol: (§2) After addition of 300 μL PBS, the fluorescent signal was detected using the FITC channel on the flow cytometer.

[4] = target: T1, CTLA4 antigen on the surface of …; test: flow cytometry, 293F-CTLA4 cells; antibody 25 nM
Protocol: as §2

[5] = target: T1, CTLA4 antigen on the surface of …; test: flow cytometry, 293F-CTLA4 cells; antibody 0.01 nM
Protocol: as §2

[6] = target: T1, CTLA4 antigen on the surface of …; test: flow cytometry, 293F-CTLA4 cells
Protocol: as §2

[7] = target: T2, CTLA4 antigen (NCBI Gene ID: 1493) …; test: BLI (Fortebio), antibody on AR2G sensor, CTLA4 in solution
Protocol: 2. […] After equilibration in PBST, the CTLA4 antigen was added for binding. […] Dissociation occurred in PBST.

[8] = target: T1, CTLA4 antigen on the surface of …; test: flow cytometry, 293F-CTLA4 cells; antibody 0.001 nM
Protocol: as §2

[9] = target: T1, CTLA4 antigen on the surface of …; test: flow cytometry, 293F-CTLA4 cells; antibody 1 nM
Protocol: as §2

[10] = target: T1, CTLA4 antigen on the surface of …; test: flow cytometry, 293F-CTLA4 cells; antibody 10 nM
Protocol: as §2

[11] = target: T1, CTLA4 antigen on the surface of …; test: flow cytometry, 293F-CTLA4 cells; antibody 5 nM
Protocol: as §2

human CTLA4 = target: T3, human CTLA4; test: ELISA on coated CTLA4, source Human
Protocol: (§3) The ELISA plate was coated with CTLA4 at 4° C. over night. […] The enzyme conjugated secondary antibody was added for incubation for 30 min. Then, the absorbance at 450 nm was determined on an ELISA plate reader.

CTLA4-mFc [12] = target: T4, CTLA4-mFc; test: competitive ELISA, CTLA4-mFc coated, competitor B7/2-His; antibody 1 µg/ml
Protocol: as §1

CTLA4-mFc [13] = target: T4, CTLA4-mFc; test: competitive ELISA, competitor B7-1; third of three tests
Protocol: as §1

CTLA4-mFc [14] = target: T4, CTLA4-mFc; test: competitive ELISA, competitor B7-2; third of three tests
Protocol: as §1

CTLA4-mFc [15] = target: T4, CTLA4-mFc; test: competitive ELISA, competitor B7-2; first of three tests
Protocol: as §1

CTLA4-mFc [16] = target: T4, CTLA4-mFc; test: competitive ELISA, competitor B7-1; second of three tests
Protocol: as §1

CTLA4-mFc [17] = target: T4, CTLA4-mFc; test: competitive ELISA, competitor B7-2; second of three tests
Protocol: as §1

CTLA4-mFc [18] = target: T4, CTLA4-mFc; test: competitive ELISA, competitor B7-1; first of three tests; competitor B7-1; first of three tests, the run with controls 10D1 5.15 nM and 11.2.1 1.073 nM
Protocol: as §1

monkey CTLA4-hFc = target: T5, monkey CTLA4-hFc (monkey); test: ELISA on coated CTLA4, source Monkey
T5 construct: also called monkey CTLA4 antigen
Protocol: as §3

| Binder | EC50 (CTLA4-mFc [1]) | EC50 (CTLA4-mFc [2]) | fluorescence intensity [3] | fluorescence intensity [4] | fluorescence intensity [5] | EC50 [6] | Kd [7] | koff [7] | kon [7] | fluorescence intensity [8] | fluorescence intensity [9] | fluorescence intensity [10] | fluorescence intensity [11] | EC50 (human CTLA4) | further results |
| --- | --- | --- | --- | --- | --- | --- | --- | --- | --- | --- | --- | --- | --- | --- | --- |
| 8D2 recombinant antibody, 8D2(Re) (antibody, V domains shown) VH: EVKLDETGGGLVQPGRPMKLSCVASGFTFSDNWMNWVRQSPEKGLEWLAQIRNKPYNYETYYSDSVKGRFTISRDDSKSSVYLQMNNLRGEDMGIYYCTAQFAYWGQGTLVTVSA VL: DIQMTQSPASLSASVGETVTITCGTSENIYGGLNWYQRKQGKSPQLLIFGATNLADGMSSRFSGSGSGRQYSLKISSLHPDDVATYYCQNVLRSPFTFGSGTKLEI [8D2 recombinant antibody, 8D2(Re), listing 1 of 2 here] | 0.514 nM | 0.153 nM | – | – | – | – | – | – | – | – | – | – | – | – | – |
| 8D2 recombinant antibody, 8D2(Re) (antibody, V domains shown) VH: EVKLDETGGGLVQPGRPMKLSCVASGFTFSDNWMNWVRQSPEKGLEWLAQIRNKPYNYETYYSDSVKGRFTISRDDSKSSVYLQMNNLRGEDMGIYYCTAQFAYWGQGTLVTVSA VL: DIQMTQSPASLSASVGETVTITCGTSENIYGGLNWYQRKQGKSPQLLIFGATNLADGMSSRFSGSGSGRQYSLKISSLHPDDVATYYCQNVLRSPFTFGSGTKLEI [8D2 recombinant antibody, 8D2(Re), listing 2 of 2 here] | – | – | 66.7 | 873 | 24.7 | 1.38 nM | – | – | – | 24.6 | 321 | 898 | 714 | – | – |
| humanized antibody 8D2H2L15 (antibody, V domains shown) VH: EVQLVESGGGLVQPGGSMRLSCAASGFTFSDNWMNWVRQAPGKGLEWLAQIRNKPYNYETYYSASVKGRFTISRDDSKNSVYLQMNSLKTEDTGVYYCTAQFAYWGQGTLVTVSS VL: DIQMTQSPSSLSASVGDRVTITCRTSENIYGGLNWYQRKPGKSPKLLIYGATNLASGVSSRFSGSGSGTDYTLTISSLQPEDVATYYCQNVLSRHPGFGSGTKLEIK | – | – | – | – | – | – | 1.02 nM | 0.000465 s⁻¹ | 454000 M⁻¹ s⁻¹ | – | – | – | – | 0.042 nM | – |
| humanized antibody 8D2H2L2 (antibody, V domains shown, also called 8D2H2L2(20150327); 8D2H2L2(20140422)) VH: EVQLVESGGGLVQPGGSMRLSCAASGFTFSDNWMNWVRQAPGKGLEWLAQIRNKPYNYETYYSASVKGRFTISRDDSKNSVYLQMNSLKTEDTGVYYCTAQFAYWGQGTLVTVSS VL: DIQMTQSPSSLSASVGDRVTITCRTSENIYGGLNWYQRKPGKSPKLLIYGATNLASGVSSRFSGSGSGTDYTLTISSLQPEDVATYYCQNVLRSPFTFGSGTKLEIK | – | – | – | – | – | – | – | – | – | – | – | – | – | – | absorbance at 450 nm (CTLA4-mFc [12]): 0.05; EC50 (CTLA4-mFc [13]): 3.12 nM; EC50 (CTLA4-mFc [14]): 0.301 nM; EC50 (CTLA4-mFc [15]): 1.64 nM; EC50 (CTLA4-mFc [16]): 2.97 nM; EC50 (CTLA4-mFc [17]): 0.368 nM; EC50 (CTLA4-mFc [18]): 5.93 nM |
| humanized antibody 8D2H1L1 (antibody, V domains shown) VH: EVQLVESGGGLVQPGGSMRLSCAASGFTFSDNWMNWVRQAPGKGLEWLAQIRNKPYNYETYYSDSVKGRFTISRDDSKNSVYLQMNSLKTEDTGVYYCTAQFAYWGQGTLVTVSS VL: DIQMTQSPSSLSASVGDRVTITCRTSENIYGGLNWYQRKQGKSPKLLIYGATNLASGMSSRFSGSGSGTDYTLKISSLHPDDVATYYCQNVLRSPFTFGSGTKLEIK | 2.48 nM | 0.178 nM | – | – | – | – | – | – | – | – | – | – | – | – | – |

Second part, led by results:

| EC50 (CTLA4-mFc [1]) | EC50 (CTLA4-mFc [2]) | fluorescence intensity [3] | fluorescence intensity [4] | fluorescence intensity [5] | EC50 [6] | Kd [7] | koff [7] | kon [7] | fluorescence intensity [8] | fluorescence intensity [9] | fluorescence intensity [10] | fluorescence intensity [11] | EC50 (human CTLA4) | Binder | further results |
| --- | --- | --- | --- | --- | --- | --- | --- | --- | --- | --- | --- | --- | --- | --- | --- |
| – | – | 9.1 | 722 | 7.7 | 3.84 nM | 0.166 nM | 2.36e-05 s⁻¹ | 142000 M⁻¹ s⁻¹ | 7.6 | 25.5 | 639 | 183 | – | monoclonal antibody 8D2 (antibody, V domains shown, Murine antibody purified from hybridoma supernatant; also called mAb 8D2; antibody secreted by the CTLA4-8D2 hybridoma cell line LT001) VH: EVKLDETGGGLVQPGRPMKLSCVASGFTFSDNWMNWVRQSPEKGLEWLAQIRNKPYNYETYYSDSVKGRFTISRDDSKSSVYLQMNNLRGEDMGIYYCTAQFAYWGQGTLVTVSA VL: DIQMTQSPASLSASVGETVTITCGTSENIYGGLNWYQRKQGKSPQLLIFGATNLADGMSSRFSGSGSGRQYSLKISSLHPDDVATYYCQNVLRSPFTFGSGTKLEI | – |
| – | – | – | – | – | – | 0.766 nM | 0.000352 s⁻¹ | 459000 M⁻¹ s⁻¹ | – | – | – | – | 0.047 nM | humanized antibody 8D2H2L17 (antibody, V domains shown) VH: EVQLVESGGGLVQPGGSMRLSCAASGFTFSDNWMNWVRQAPGKGLEWLAQIRNKPYNYETYYSASVKGRFTISRDDSKNSVYLQMNSLKTEDTGVYYCTAQFAYWGQGTLVTVSS VL: DIQMTQSPSSLSASVGDRVTITCRTSENIYGGLNWYQRKPGKSPKLLIYGATNLASGVSSRFSGSGSGTDYTLTISSLQPEDVATYYCQNVLSSRPGFGSGTKLEIK | – |
| 2.14 nM | 0.167 nM | – | – | – | – | – | – | – | – | – | – | – | – | humanized antibody 8D2H3L3 (antibody, V domains shown) VH: EVQLVESGGGLVQPGGSLRLSCAASGFTFSDNWMNWVRQAPGKGLEWVAQIRNKPYNYETEYAASVKGRFTISRDDSKNSAYLQMNSLKTEDTAVYYCTAQFAYWGQGTLVTVSS VL: DIQMTQSPSSLSASVGDRVTITCRASENIYGGLNWYQQKPGKAPKLLIYGATSLASGVPSRFSGSGSGTDYTLTISSLQPEDFATYYCQNVLRSPFTFGSGTKLEIK [humanized antibody 8D2H3L3, listing 1 of 2 here] | – |
| – | – | 108 | 1090 | 25.1 | 4.54 nM | 1.05 nM | 0.000327 s⁻¹ | 312000 M⁻¹ s⁻¹ | 10.8 | 623 | 1080 | 971 | 0.129 nM | humanized antibody 8D2H3L3 (antibody, V domains shown) VH: EVQLVESGGGLVQPGGSLRLSCAASGFTFSDNWMNWVRQAPGKGLEWVAQIRNKPYNYETEYAASVKGRFTISRDDSKNSAYLQMNSLKTEDTAVYYCTAQFAYWGQGTLVTVSS VL: DIQMTQSPSSLSASVGDRVTITCRASENIYGGLNWYQQKPGKAPKLLIYGATSLASGVPSRFSGSGSGTDYTLTISSLQPEDFATYYCQNVLRSPFTFGSGTKLEIK [humanized antibody 8D2H3L3, listing 2 of 2 here] | EC50 (monkey CTLA4-hFc): 0.385 nM |
